Measurements reported in patent publication US20220227882A1 (TRUSTEES OF TUFTS COLLEGE, published 2022).

Molecular target: T1, E444A (Homo sapiens, UniProt P78325)
T1 construct: expressed on HEK293 cells; also called human ADAM8 point mutant E444A
T1 sequence (ADAM8, looked up): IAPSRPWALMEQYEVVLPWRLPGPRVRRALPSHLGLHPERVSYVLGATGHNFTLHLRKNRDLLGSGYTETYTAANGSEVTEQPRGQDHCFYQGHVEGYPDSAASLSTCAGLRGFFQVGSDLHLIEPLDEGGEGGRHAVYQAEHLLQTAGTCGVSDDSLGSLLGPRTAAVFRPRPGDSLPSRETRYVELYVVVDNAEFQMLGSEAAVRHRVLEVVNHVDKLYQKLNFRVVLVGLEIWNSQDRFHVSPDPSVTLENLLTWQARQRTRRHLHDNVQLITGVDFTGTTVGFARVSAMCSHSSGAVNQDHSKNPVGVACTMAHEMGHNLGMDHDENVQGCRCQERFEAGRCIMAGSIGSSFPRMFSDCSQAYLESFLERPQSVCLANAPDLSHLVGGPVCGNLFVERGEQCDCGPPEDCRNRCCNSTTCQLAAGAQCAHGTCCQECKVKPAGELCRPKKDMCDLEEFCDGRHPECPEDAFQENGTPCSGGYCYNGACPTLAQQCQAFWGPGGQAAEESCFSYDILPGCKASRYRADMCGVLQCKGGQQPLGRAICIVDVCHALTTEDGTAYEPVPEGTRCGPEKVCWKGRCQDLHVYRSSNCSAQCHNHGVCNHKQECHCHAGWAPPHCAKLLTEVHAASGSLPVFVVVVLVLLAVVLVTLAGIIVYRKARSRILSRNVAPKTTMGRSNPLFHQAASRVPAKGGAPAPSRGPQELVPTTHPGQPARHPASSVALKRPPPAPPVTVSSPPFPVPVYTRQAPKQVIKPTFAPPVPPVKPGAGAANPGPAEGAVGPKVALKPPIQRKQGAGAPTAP
Assay: high-throughput flow cytometry, HEK293 cells with mutant ADAM8, high stringency; range in parentheses
Procedure, shortened: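 HEK293 cells expressing WT or alanine-mutant ADAM8 were stained for 60 min with ADP2 Fab (0.50 μg/ml) or ADP13 Fab (5.00 μg/ml) in PBS with 10% goat serum under high-stringency conditions. Detection used an Alexa Fluor 488 secondary, with mean cellular fluorescence measured by high-throughput flow cytometry in duplicate.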

B1: ADP13 Fab (Fab, V domains shown)
VH: EVQLQQSGPEMVKPGTSVKISCKASGYTFTDYYINWVKQSHGKSLEWIGDISPNIGGATYNPKFKGKAILTVDKSARTAYMELRSLTSEDSAVYCCTRGGSSYPYFYAMDYWGQGTSVTVSS
VL: DIVMSQSPSSLAVSVGEKVTMSCKSSQSLLYSSNQKKYLAWYQQKPGQSPKLLIYWASTRESGVPDRFTGSGSGTDFTLTISSVKAEDLAVYYCQQFYSYPYTFGGGTKLEINR
For B1, which “Binding Reactivity (% WT)” value is on record?
The value was 70.8 % WT.
